# Measurements published in publication PMC3554717 (2013).
# B1: LYP tagged with the myc epitope, Arg620 variant (myc-LYPR) [human] / HA-CSK [not stated] (parent complex)
# chain 1: MDQREILQKFLDEAQSKKITKEEFANEFLKLKRQSTKYKADKTYPTTVAEKPKNIKKNRYKDILPYDYSRVELSLITSDEDSSYINANFIKGVYGPKAYIATQGPLSTTLLDFWRMIWEYSVLIIVMACMEYEMGKKKCERYWAEPGEMQLEFGPFSVSCEAEKRKSDYIIRTLKVKFNSETRTIYQFHYKNWPDHDVPSSIDPILELIWDVRCYQEDDSVPICIHCSAGCGRTGVICAIDYTWMLLKDGIIPENFSVFSLIREMRTQRPSLVQTQEQYELVYNAVLELFKRQMDVIRDKHSGTESQAKHCIPEKNHTLQADSYSPNLPKSTTKAAKMMNQQRTKMEIKESSSFDFRTSEISAKEELVLHPAKSSTSFDFLELNYSFDKNADTTMKWQTKAFPIVGEPLQKHQSLDLGSLLFEGCSNSKPVNAAGRYFNSKVPITRTKSTPFELIQQRETKEVDSKENFSYLESQPHDSCFVEMQAQKVMHVSSAELNYSLPYDSKHQIRNASNVKHHDSSALGVYSYIPLVENPYFSSWPPSGTSSKMSLDLPEKQDGTVFPSSLLPTSSTSLFSYYNSHDSLSLNSPTNISSLLNQESAVLATAPRIDDEIPPPLPVRTPESFIVVEEAGEFSPNVPKSLSSAVKVKIGTSLEWGGTSEPKKFDDSVILRPSKSVKLRSPKSELHQDRSSPPPPLPERTLESFFLADEDCMQAQSIETYSTSYPDTMENSTSSKQTLKTPGKSFTRSKSLKILRNMKKSICNSCPPNKPAESVQSNNSSSFLNFGFANRFSKPKGPRNPPPTWNI
# chain 2: MSAIQAAWPSGTECIAKYNFHGTAEQDLPFCKGDVLTIVAVTKDPNWYKAKNKVGREGIIPANYVQKREGVKAGTKLSLMPWFHGKITREQAERLLYPPETGLFLVRESTNYPGDYTLCVSCDGKVEHYRIMYHASKLSIDEEVYFENLMQLVEHYTSDADGLCTRLIKPKVMEGTVAAQDEFYRSGWALNMKELKLLQTIGKGEFGDVMLGDYRGNKVAVKCIKNDATAQAFLAEASVMTQLRHSNLVQLLGVIVEEKGGLYIVTEYMAKGSLVDYLRSRGRSVLGGDCLLKFSLDVCEAMEYLEGNNFVHRDLAARNVLVSEDNVAKVSDFGLTKEASSTQDTGKLPVKWTAPEALREKKFSTKSDVWSFGILLWEIYSFGRVPYPRIPLKDVVPRVEKGYKMDAPDGCPPAVYEVMKNCWHLDAAMRPSFLQLREQLEHIKTHELHL
# Variants of: B1
# Assay: co-immunoprecipitation (IP anti-myc, IB HA), blot densitometry; HEK293 cells; parent: 64.8
row,response [arbitrary units],Variant
1,0.03,"chain 1 R620F, chain 1 R700F"
2,5.2,chain 1 R620F
3,30,chain 1 R700F

# Variants of: B1
# Assay: co-immunoprecipitation (IP anti-myc, IB HA), blot densitometry; transfected HEK293 cells; parent: 48.1
row,response [arbitrary units],Variant
1,10.3,"chain 1 P615A, chain 1 P618A"
2,23.3,chain 1 P695A
3,0.07,"chain 1 R620W, chain 1 P695A"
4,18,chain 1 R620W
5,0.77,"chain 1 P615A, chain 1 P618A, chain 1 P695A"

# Variants of: B1
# Assay: co-immunoprecipitation (IP anti-myc, IB HA), blot densitometry; transiently transfected HEK293 cells; pEF empty-vector lane 3.67; parent: 57.8
row,response [arbitrary units],Variant
1,19.1,"chain 1 I626A, chain 1 V627A"
2,19.5,chain 1 R620W
